Laboratory results reported in patent publication US20250333531A1.
Each block holds one substance with its values, some of them ahead of it.

Tests used:
[1] = molecular target: biotinylated truncated soluble human FcγRI (human) (UniProt P12314); test: ELISA: IgG coated at 10000-4.5 ng/ml, biotinylated truncated soluble human FcγRI 250 ng/ml pre-complexed with AP-streptavidin, absorbance 405 nm
[2] = molecular target: biotinylated soluble human FcRn (human) (UniProt P55899); test: ELISA: IgG coated at 1000-0.45 ng/ml, biotinylated soluble human FcRn 250 ng/ml pre-complexed with AP-streptavidin, pH 7.4, absorbance 405 nm
[3] = molecular target: biotinylated truncated soluble human FcγRIIa-H131 (human) (UniProt P12318); test: ELISA: IgG coated at 10000-4.5 ng/ml, biotinylated truncated soluble human FcγRIIa-H131 250 ng/ml pre-complexed with AP-streptavidin, absorbance 405 nm
[4] = molecular target: FcγRIIIa-V158 on Promega Jurkat effector cells (UniProt P08637); test: cell-based or functional assay
[5] = molecular target: biotinylated truncated soluble human FcγRIIa-R131 (human) (UniProt P12318); test: ELISA: IgG coated at 10000-4.5 ng/ml, biotinylated truncated soluble human FcγRIIa-R131 250 ng/ml pre-complexed with AP-streptavidin, absorbance 405 nm
[6] = molecular target: biotinylated truncated soluble human FcγRIIIa-V158 (human) (UniProt P08637); test: ELISA: IgG coated at 10000-4.5 ng/ml, biotinylated truncated soluble human FcγRIIIa-V158 250 ng/ml pre-complexed with AP-streptavidin, absorbance 405 nm
[7] = molecular target: biotinylated truncated soluble human FcγRIIb (human) (UniProt P31994); test: ELISA: IgG coated at 10000-4.5 ng/ml, biotinylated truncated soluble human FcγRIIb 250 ng/ml pre-complexed with AP-streptavidin, absorbance 405 nm
CD20 [8] = molecular target: CD20 (UniProt P11836); test: flow cytometry on CLL patient sample CLL177, FITC-rituximab at 10 µg per 10^6 cells, median fluorescence intensity, background corrected
CD20 [9] = molecular target: CD20 (UniProt P11836); test: flow cytometry on CLL patient sample CLL187, FITC-rituximab at 10 µg per 10^6 cells, median fluorescence intensity, background corrected
CD20 [10] = molecular target: CD20 (UniProt P11836); test: flow cytometry, FITC-labelled antibody on Daudi and SU-DHL-6 cells
human CD37 (human) = human CD37 (human) (UniProt P11049); test: flow cytometry on Ramos cells, isotype control, MFI normalised to chHH1-DOTA (blank supernatant 28.3%)
Sequence of human CD37 (human) (P11049 whole entry): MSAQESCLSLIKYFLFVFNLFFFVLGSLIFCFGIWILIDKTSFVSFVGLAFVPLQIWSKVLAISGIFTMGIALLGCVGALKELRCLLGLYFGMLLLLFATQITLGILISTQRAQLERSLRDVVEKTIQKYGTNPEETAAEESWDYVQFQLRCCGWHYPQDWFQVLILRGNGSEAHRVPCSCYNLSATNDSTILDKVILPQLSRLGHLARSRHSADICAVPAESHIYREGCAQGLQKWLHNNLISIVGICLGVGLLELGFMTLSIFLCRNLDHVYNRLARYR

Sequence of CD20 (P11836 whole entry): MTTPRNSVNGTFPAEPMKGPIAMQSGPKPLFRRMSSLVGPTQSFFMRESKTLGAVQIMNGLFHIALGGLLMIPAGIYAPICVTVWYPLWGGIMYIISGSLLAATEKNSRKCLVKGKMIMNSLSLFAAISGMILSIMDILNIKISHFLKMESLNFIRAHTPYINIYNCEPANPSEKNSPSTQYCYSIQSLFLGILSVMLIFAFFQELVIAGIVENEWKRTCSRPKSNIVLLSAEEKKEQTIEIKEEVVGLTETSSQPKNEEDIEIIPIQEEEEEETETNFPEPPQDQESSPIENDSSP
Sequence of biotinylated truncated soluble human FcγRIIa-H131 (human) (P12318 34-217): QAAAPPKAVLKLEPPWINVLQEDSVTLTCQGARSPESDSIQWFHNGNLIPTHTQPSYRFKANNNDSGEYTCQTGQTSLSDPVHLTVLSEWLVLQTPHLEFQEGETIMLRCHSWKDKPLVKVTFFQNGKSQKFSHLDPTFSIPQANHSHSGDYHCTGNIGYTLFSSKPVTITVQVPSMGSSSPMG
Sequence of biotinylated truncated soluble human FcγRI (human) (P12314 16-292): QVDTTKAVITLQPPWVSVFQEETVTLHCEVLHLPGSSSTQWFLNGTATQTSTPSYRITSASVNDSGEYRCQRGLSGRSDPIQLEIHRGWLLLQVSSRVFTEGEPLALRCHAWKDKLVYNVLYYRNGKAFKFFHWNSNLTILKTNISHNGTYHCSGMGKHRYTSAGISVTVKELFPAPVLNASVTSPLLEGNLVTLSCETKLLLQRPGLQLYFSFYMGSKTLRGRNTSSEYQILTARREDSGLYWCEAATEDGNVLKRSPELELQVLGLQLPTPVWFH
Sequence of biotinylated truncated soluble human FcγRIIb (human) (P31994 43-217): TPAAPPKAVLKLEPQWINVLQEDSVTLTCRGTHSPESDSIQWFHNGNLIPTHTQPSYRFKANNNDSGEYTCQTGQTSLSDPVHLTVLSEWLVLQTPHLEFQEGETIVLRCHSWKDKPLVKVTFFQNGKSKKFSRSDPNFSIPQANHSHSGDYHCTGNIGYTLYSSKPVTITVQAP
Sequence of biotinylated truncated soluble human FcγRIIa-R131 (human) (P12318 34-217 H167R): as the sequence (P12318 34-217) above, with H134R counted along it

EC50 (read off the curve) [1]: 0.6 µg/mL
EC50 (read off the curve) [2]: 0.06 µg/mL
EC50 (read off the curve) [3]: 0.6 µg/mL
average potency of the ADCC response (Example 13) [4]: 1.1 nM
EC50 (read off the curve) [5]: 2 µg/mL
EC50 (read off the curve) [6]: 1 µg/mL
EC50 (read off the curve) [7]: 2 µg/mL
Substance: obinutuzumab (antibody)

Avg. MFI (a.u.) (CD20 [8]): 52 a.u.
Avg. MFI (a.u.) (CD20 [9]): 68 a.u.
saturation titer (µg per 10^6 cells) (CD20 [10]): 10
Substance: Anti-CD20 (10F381 rituximab) FITC-conjugated rabbit/human chimeric Ab (antibody)

Normalized average binding (%) (human CD37 (human)): 29.5%
Substance: isotype control antibody
